# T1: human CD20 (human, UniProt P11836 1-297)
# T1 construct: whole, on cells; On Ramos or Raji B cells (natural) or on transfected CHO-K1 cells, as said under assay or readout; also called CD20 on Ramos cells; CD20 on Raji cells
# T1 sequence (looked up): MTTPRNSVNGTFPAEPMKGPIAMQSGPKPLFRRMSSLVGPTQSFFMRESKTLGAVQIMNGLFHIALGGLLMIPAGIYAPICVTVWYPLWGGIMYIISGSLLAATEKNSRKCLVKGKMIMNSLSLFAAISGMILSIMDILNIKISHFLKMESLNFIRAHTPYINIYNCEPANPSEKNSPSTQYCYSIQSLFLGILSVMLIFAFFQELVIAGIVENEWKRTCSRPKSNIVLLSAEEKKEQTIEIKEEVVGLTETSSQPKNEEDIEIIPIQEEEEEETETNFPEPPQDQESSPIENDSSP
# Tests used:
# [1] = target: T2, human TCR/CD3 complex on purified primary human T cells (human); experiment: flow cytometry on purified primary human T cells
# T2 construct: Natural complex on T cells isolated from buffy coats of healthy donors; also called hu T cells; purified primary T cells
# [2] = target: T3, human CD3 expressed on HEK293H cells (human, UniProt P20963 22-164); experiment: flow cytometry on HEK293H cells expressing human CD3
# T3 construct: also called HEK293H CD3; HEK293H human CD3
# Description: The parental HEK293H cell line was included as TCR/CD3 negative cell line.
# [3] = target: T1, human CD20; experiment: flow cytometry on Raji cells, MCF (Mean PE)
# [4] = target: T1, human CD20; experiment: flow cytometry on Ramos cells, MCF (Mean PE)
# T2 sequence (delta, as listed by the source limits assumed, chain 1 of 4): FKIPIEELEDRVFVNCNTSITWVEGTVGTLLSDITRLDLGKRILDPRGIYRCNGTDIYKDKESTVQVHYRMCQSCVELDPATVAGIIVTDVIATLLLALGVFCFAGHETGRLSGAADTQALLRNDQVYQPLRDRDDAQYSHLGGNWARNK
# T2 sequence (gamma, as listed by the source limits assumed, chain 2 of 4): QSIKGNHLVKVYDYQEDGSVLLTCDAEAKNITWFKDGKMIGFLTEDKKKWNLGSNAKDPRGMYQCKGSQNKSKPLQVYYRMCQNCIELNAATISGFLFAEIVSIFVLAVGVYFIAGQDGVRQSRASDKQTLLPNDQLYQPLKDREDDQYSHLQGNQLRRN
# T2 sequence (epsilon, as listed by the source limits assumed, chain 3 of 4): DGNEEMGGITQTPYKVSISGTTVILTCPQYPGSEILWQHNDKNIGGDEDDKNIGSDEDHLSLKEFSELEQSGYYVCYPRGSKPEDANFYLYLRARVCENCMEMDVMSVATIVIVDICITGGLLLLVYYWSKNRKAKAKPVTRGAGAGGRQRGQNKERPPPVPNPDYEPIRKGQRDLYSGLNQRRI
# T2 sequence (zeta, as listed by the source limits assumed, chain 4 of 4): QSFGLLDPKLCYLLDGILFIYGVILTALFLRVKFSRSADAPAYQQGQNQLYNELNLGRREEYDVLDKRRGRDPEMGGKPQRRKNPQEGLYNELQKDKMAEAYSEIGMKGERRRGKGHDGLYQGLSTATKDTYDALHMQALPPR
# T3 sequence (chain, as listed by the source limits assumed, chain 1 of 4): as the sequence (delta, as listed by the source limits assumed, chain 1 of 4) above
# T3 sequence (chain, as listed by the source limits assumed, chain 2 of 4): as the sequence (gamma, as listed by the source limits assumed, chain 2 of 4) above
# T3 sequence (chain, as listed by the source limits assumed, chain 3 of 4): as the sequence (epsilon, as listed by the source limits assumed, chain 3 of 4) above
# T3 sequence (P20963 22-164 limits assumed, chain 4 of 4): as the sequence (zeta, as listed by the source limits assumed, chain 4 of 4) above
binder,measurement,setting,value
"T0170117G03 (VHH, Monovalent anti-CD3 Nanobody, expressed in E. coli TG1 as triple Flag, His6-tagged protein; also called T0170PMP117G03; cluster A representative; not shown: C-terminal triple FLAG and His6 tag) VHH: EVQLVESGGGPVQAGGSLRLSCAASGRTYRGYSMGWFRQAPGKEREFVAAIVWSGGNTYYEDSVKGRFTISRDNAKNTMYLQMTSLKPEDSATYYCAAKIRPYIFKIAGQYDYWGQGTQVTVSS",EC50,[1],22 nM
"T0170075G11 (VHH, also called T0170PMP075G11; cluster A; not shown: C-terminal triple FLAG and His6 tag) VHH: EVQLVESGGGPVQAGDSLRLSCAASGRTYRGYSMGWFRQVPGKEREFVAAIVWTDGNTYYEDSVKGRFTISRDITKNTMYLHMTSLKPEDSATYYCAAKIRPYIFKIAGQYDYWGQGTQVTVSS",EC50,[2],84 nM
"20CD019C07 (VHH, also called the anti-CD20 Nanobody; human CD20 targeting Nanobody) VHH: EVQLVESGGGLVQPGGSLRLSCTFSGGTFSSYTMGWFRQAPGKEREFVAEVRWGGVTTYSNSLKDRFSISEDSVKNAVYLQMNSLKPEDTAVYYCAAVRQMYMTVVPDYWGQGTLVTVSS",EC50 (read off the curve),[3],~20 nM
same,EC50 (read off the curve),[4],~9 nM
